Assay results as given in patent US20200239586A1 (LA TROBE UNIVERSITY, published 2020).

Legend:
[1] = biological target: T1, Fn14 gene fragment RW129 on phage (human, UniProt Q9NP84 32-74); experiment: phage ELISA, Fn14 gene fragments on phage, CRCBT-06-001 wells versus blank wells
T1 construct: not shown: M13 pIII coat protein (gene fragment library in pHENH6)

[2] = biological target: T2, Fn14 gene fragment RW131 on phage (human, UniProt Q9NP84 23-69); experiment: as above
T2 construct: not shown: M13 pIII coat protein (gene fragment library in pHENH6)
T2 chain: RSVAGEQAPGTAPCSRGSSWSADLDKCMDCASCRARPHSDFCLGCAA

[3] = biological target: T3, Fn14 gene fragment RW125 on phage (human, UniProt Q9NP84 31-74); experiment: as above
T3 construct: not shown: M13 pIII coat protein (gene fragment library in pHENH6)

[4] = biological target: T4, Fn14 gene fragment RW120 on phage (human, UniProt Q9NP84 31-74); experiment: as above
T4 construct: not shown: M13 pIII coat protein (gene fragment library in pHENH6)

[5] = biological target: T5, Fn14 gene fragment RW114 on phage (human, UniProt Q9NP84 31-70); experiment: as above
T5 construct: not shown: M13 pIII coat protein (gene fragment library in pHENH6)
T5 chain: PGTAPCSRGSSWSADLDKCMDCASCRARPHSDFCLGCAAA

[6] = biological target: T6, Fn14 gene fragment RW95 on phage (human, UniProt Q9NP84 37-90); experiment: as above
T6 construct: not shown: M13 pIII coat protein (gene fragment library in pHENH6)
T6 sequence: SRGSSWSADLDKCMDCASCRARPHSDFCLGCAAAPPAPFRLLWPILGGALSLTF

[7] = biological target: phage-displayed hFn14 mutant T33N (human, UniProt Q9NP84 28-77); experiment: phage ELISA, antibody on plate
phage-displayed hFn14 mutant T33N, sequence (Q9NP84 28-77 T33N): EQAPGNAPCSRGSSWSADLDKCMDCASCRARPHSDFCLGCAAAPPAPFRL

[8] = biological target: phage-displayed hFn14 mutant A34S (human, UniProt Q9NP84 28-77); experiment: phage ELISA, antibody on plate
phage-displayed hFn14 mutant A34S, sequence (Q9NP84 28-77 A34S): as the sequence (Q9NP84 28-77 T33N) above, with N6T, A7S counted along it

[9] = biological target: phage-displayed hFn14 mutant R38S (human, UniProt Q9NP84 28-77); experiment: phage ELISA, antibody on plate
phage-displayed hFn14 mutant R38S, sequence (Q9NP84 28-77 R38S): as the sequence (Q9NP84 28-77 T33N) above, with N6T, R11S counted along it

[10] = biological target: phage-displayed hFn14 mutant R56P (human, UniProt Q9NP84 28-77); experiment: phage ELISA, antibody on plate
phage-displayed hFn14 mutant R56P, sequence (Q9NP84 28-77 R56P): as the sequence (Q9NP84 28-77 T33N) above, with N6T, R29P counted along it

[11] = biological target: phage-displayed hFn14 mutant L77M (human, UniProt Q9NP84 28-76); experiment: phage ELISA, antibody on plate
phage-displayed hFn14 mutant L77M, sequence (Q9NP84 28-77 L77M): as the sequence (Q9NP84 28-77 T33N) above, with N6T, L50M counted along it

recombinant Fn14-Fc = biological target: T7, recombinant Fn14-Fc (human, UniProt Q9NP84 28-77); experiment: SPR (ProteOn XPR36), mAb captured on anti-mouse IgG, Fn14-Fc analyte, bivalent analyte fit
T7 construct: also called native Fn14; not shown: Fc region (recognised by anti-human Fc)
T7 sequence (Q9NP84 28-77): as the sequence (Q9NP84 28-77 T33N) above, with N6T counted along it
Procedure: The interaction of mouse anti-Fn14 IgG monoclonal antibodies CRCBT-06-001 and CRCBT-06-002 with recombinant Fn14-Fc was measured using the Bio-Rad ProteOn XPR36 essentially as described by Nahshol et al., (2008). Briefly, a GLM ProteOn sensor chip was activated by flowing a mixture of 0.2 M EDC and 0.05 M sulpho-NHS over the chip (150 μl at 30 μl/min for 5 minutes). Rabbit anti-mouse IgG whole molecule (Sigma M-7023) was then coupled to the chip in the vertical orientation by flowing 150 μl of a 50 μg/ml solution in 10 mM acetate buffer (pH 4.5) at 30 μl/min. The remaining coupling sites were then deactivated by flowing 150 μl of 1 M ethanolamine-HCl (pH 8.5) at 30 μl/min. Mouse anti-Fn14 IgG monoclonal antibodies were then bound to the coupled anti-mouse IgG antibody by flowing 150 μl of 100 μg/ml IgG at 25 μl/min over a single channel of the sensor chip in the horizontal direction. […] PBS Tween 20 (0.005%) alone was passed over the remaining channel. Binding sensorgrams were collected and analyzed with the ProteOn Manager 2.1 XPR36 software using the Langmuir or bivalent analyte kinetic models to fit the data and determine the affinity constant KD.
A Bio-Rad ProteOn XPR36 was used to determine the affinity of mouse monoclonal anti-Fn14 antibodies CRCBT-06-001 and CRCBT-06-002 to recombinant Fn14-Fc. It is clear that both antibodies tested display a high on-rate and a low off-rate. The ProteOn software was used to fit a curve to the sensorgram based on a mathematical model, enabling the kinetics of the interaction (ka, Kd and KD) to be calculated. A number of models can be used to fit the curves to the sensorgram, essentially the models used for each sensorgram were used as they provided the best fit, as evident by the low Chi² value obtained for the residuals.

T1 sequence (Q9NP84 32-74): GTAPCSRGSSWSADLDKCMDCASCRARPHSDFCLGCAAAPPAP

B1: CRCBT-06-001 (antibody, IgG2b, V domains shown)
VH: QVQLQQSGGGLVQPGGSMKLSCIASGFTFSSYWMSWVRQSPEKGLEWVAEIRSKSDNYATHYAESVKGKFTISRDDSKSRFFLQMNNLRAEDTGIYYCSSTYADYFHYWGQGTDLTVSS
VL: DIVMTQTPASLAVSLGQRATISCRASQSVSTSTYSYMHWYQQKPGQPPKLLIKYASSLESGVPARFSGSGSGTDFTLNIHPVEEDDTATYYCQHSWEIPYTFGGGTKLEIKR
binding result [1]: binds | binding result [2]: binds | binding result [3]: binds | binding result [4]: binds | binding result [5]: binds | binding result [6]: no binding

B2: CRCBT-06-002 (antibody, IgG1, V domains shown)
VH: EVKLQQSGGGLVQPGGSMKLSCVASGFTFSYYWMNWVRQSPEQGLEWIAEIRLQSNDYPTHYAESVKGRFTISRDDSKNSVYLQMNNLRPEDTGIYYCACRYADYFDHWGQGTTLTVSS
VL: DTVLTQSPASLVVSLGQRATISCRASQSVSTSDYSYIHWYQQKPGQPPKFLIKYASNRDSGVPARFSGSGSGTDFTLNIHPVEEDDTAIYYCQHSWEIPPTFGAGTKLELQR
binding result [7]: binds | binding result [8]: binds | binding result [9]: binds | binding result [10]: binds | binding result [11]: binds | Kd (recombinant Fn14-Fc): 0.935 nM | koff (recombinant Fn14-Fc): 1.42e-05 s⁻¹ | kon (recombinant Fn14-Fc): 15200 M⁻¹ s⁻¹
